# From patent US11866736B2, “Protein prostheses for mitochondrial diseases or conditions” (The General Hospital Corporation, priority 2015, dated 2024)
# B1: Ndi1: yeast (S. cerevisiae) NADH dehydrogenase Ndi1 protein, positive control (protein, UniProt P32340 27-513, looked up)
# Rotenone-insensitive …: STGVENSGAGPTSFKTMKVIDPQHSDKPNVLILGSGWGAISFLKHIDTKKYNVSIISPRSYFLFTPLLPSAPVGTVDEKSIIEPIVNFALKKKGNVTYYEAEATSINPDRNTVTIKSLSAVSQLYQPENHLGLHQAEPAEIKYDYLISAVGAEPNTFGIPGVTDYGHFLKEIPNSLEIRRTFAANLEKANLLPKGDPERRRLLSIVVVGGGPTGVEAAGELQDYVHQDLRKFLPALAEEVQIHLVEALPIVLNMFEKKLSSYAQSHLENTSIKVHLRTAVAKVEEKQLLAKTKHEDGKITEETIPYGTLIWATGNKARPVITDLFKKIPEQNSSKRGLAVNDFLQVKGSNNIFAIGDNAFAGLPPTAQVAHQEAEYLAKNFDKMAQIPNFQKNLSSRKDKIDLLFEENNFKPFKYNDLGALAYLGSERAIATIRSGKRTFYTGGGLMTFYLWRILYLSMILSARSRLKVFFDWIKLAFFKRDFFKGL
# What was measured:
# HeLa Tet3G cells [1] = test: Cell proliferation assays: rescue of the proliferation defect induced by respiratory chain inhibitors (nuclei counting); assay type: cell-based, human; settings: for rescue of piericidin induced proliferation defect by supplementation: HeLa Tet3G Luciferase cells, compound added to medium, 3 days
# Experimental: Five hundred HeLa Tet3G NDI1, Luciferase, LbNOX or mitoLbNOX cells were seeded in 200 μl of DMEM (DMEM (US Biological, D9800), 3.7 g/L NaHCO3, 10% dialyzed FBS (Life Technologies, 26400-044)) per well in a black 96-well plate with clear bottom (Corning, 3904). Twenty four hours after seeding, media was exchanged to DMEM without pyruvate (DMEM (US Biological, D9802), 15.9 mg/L phenol red, 3.7 g/L NaHCO3, 10% dialyzed FBS (Life Technologies, 26400-044))±10 μg/ml chloramphenicol±30 ng/ml ethidium bromide±1 mM pyruvate±300 ng/ml doxycycline. After 0, 2, 3, 4, 5 and 6 days, media was aspirated and cells were fixed by adding 100 μl of 4% paraformaldehyde in PBS and incubating at room temperature for at least 30 min. Paraformaldehyde solution was aspirated and cells were stained with 200 μl of 1 μg/ml Hoechst 33345 in PBS. Plates were covered with sealing aluminum foil and stored at 4° C. before counting cells in each well with Molecular Dynamics IMAGEXPRESS® Ultra (see “Nuclei counting using Molecular Devices IMAGEXPRESS® Ultra,” below).
# One thousand HeLa Tet3G NDI1, Luciferase, LbNOX or mitoLbNOX cells were seeded in 200 μl of DMEM (DMEM (US Biological, D9800), 3.7 g/L NaHCO3, 10% dialyzed FBS (Life Technologies, 26400-044)) per well in a black 96-well plate with clear bottom (Corning, 3904). Twenty four hours after seeding, 10 μl of 6 μg/ml doxycycline (300 ng/ml final concentration) or water was added to each well. Twenty four hours after addition of doxycycline, media was exchanged to DMEM without pyruvate (DMEM (US Biological, D9802), 15.9 mg/L phenol red, 3.7 g/L NaHCO3, 10% dialyzed FBS (Life Technologies, 26400-044)), ±1 μM piericidin, ±1 μM antimycin, ±1 mM pyruvate and ±300 ng/ml doxycycline. After 0, 1, 2, 3 and 4 days, media was aspirated and cells were fixed by adding 100 μl of 4% paraformaldehyde in PBS and incubating at room temperature for at least 30 min. Paraformaldehyde solution was aspirated and cells were stained with 200 μl of 1 μg/ml Hoechst 33345. Plates were covered with sealing aluminum foil and stored at 4° C. before counting cells in each well with Molecular Dynamics IMAGEXPRESS® Ultra (see “Nuclei counting using Molecular Devices IMAGEXPRESS® Ultra,” below).
# Two thousand HeLa Tet3G Luciferase cells were seeded in 200 μl of DMEM (DMEM (US Biological, D9800), 3.7 g/L NaHCO3, 10% dialyzed FBS (Life Technologies, 26400-044)) per well in a black 96-well plate with clear bottom (Corning, 3904). Twenty four hours after seeding, media was exchanged to DMEM without pyruvate (DMEM (US Biological, D9802), 15.9 mg/L phenol red, 3.7 g/L NaHCO3, 10% dialyzed FBS (Life Technologies, 26400-044))±1 μM piericidin, ±indicated concentrations of pyruvate, lactate, malate, oxaloacetate, nicotinamide mononucleotide ([…]) or PJ34. After 3 days, media was aspirated and cells were fixed by adding 100 μl of 4% paraformaldehyde in PBS and incubating at room temperature for at least 30 min. Paraformaldehyde solution was aspirated and cells were stained with 200 μl of 1 μg/ml Hoechst 33345. Plates were covered with sealing aluminum foil and stored at 4° C. before counting cells in each well with Molecular Dynamics IMAGEXPRESS® Ultra (see “Nuclei counting using Molecular Devices IMAGEXPRESS® Ultra,” below).
# Images of 96-well plates with fixed cells stained with Hoechst 33345 were collected using Molecular Devices IMAGEXPRESS® Micro XLS. Four images were taken to cover the whole well. Images were analyzed and nuclei number per well was counted using CellProfiler 2.0 image analysis software (Carpenter, et al., Genome Biol., 7:R100, 2006; and Kamentsky, et al., Bioinformatics, 27:1179, 2011). […]
# HeLa Tet3G cells [2] = test: Glucose concentration-dependent cell survival; assay type: cell-based, human; settings: 1 μM piericidin, 24 hours
# Experimental: Images of 96-well plates with fixed cells stained with Hoechst 33345 were collected using Molecular Devices IMAGEXPRESS® Micro XLS. Four images were taken to cover the whole well. Images were analyzed and nuclei number per well was counted using CellProfiler 2.0 image analysis software (Carpenter, et al., Genome Biol., 7:R100, 2006; and Kamentsky, et al., Bioinformatics, 27:1179, 2011).
# Ten thousand HeLa Tet3G NDI1, Luciferase, LbNOX or mitoLbNOX cells were seeded in 200 μl of DMEM (DMEM (US Biological, D9800), 3.7 g/L NaHCO3, 10% dialyzed FBS (Life Technologies, 26400-044)) per well of a black 96-well plate with clear bottom (Corning, 3904). Twenty four hours after seeding, 10 μl of 6 μg/ml doxycycline (300 ng/ml final concentration) or water was added to each well. Twenty four hours after addition of doxycycline, media was exchanged to DMEM (DMEM (US Biological, D9800), 3.7 g/L NaHCO3, 10% dialyzed FBS (Life Technologies, 26400-044))±300 ng/ml doxycycline. […] After 24 hours, media was aspirated and cells were fixed by adding 100 μl of 4% paraformaldehyde in PBS and incubating at room temperature for at least 30 min. Paraformaldehyde solution was aspirated and cells were stained with 200 μl of 1 μg/ml Hoechst 33345. Plates were covered with sealing aluminum foil and stored at 4° C. before counting cells in each well with Molecular Dynamics IMAGEXPRESS® Ultra (see “Nuclei counting using Molecular Devices IMAGEXPRESS® Ultra,” above).
molecule,measurement,setting,value
"NC(=O)c1ccc[n+]([C@@H]2O[C@H](COP(=O)([O-])O)[C@@H](O)[C@H]2O)c1 [PMN, nicotinamide mononucleotide, reference compound]",rescue of piericidin induced proliferation defect by supplementation,HeLa Tet3G cells [1]; 1 μM piericidin,did not rescue
"CC(O)C(=O)O (stereo not drawn) [lactate, reference compound]",rescue of piericidin induced proliferation defect by supplementation,HeLa Tet3G cells [1]; 1 μM piericidin,do not
"CN(C)CC(=O)Nc1ccc2[nH]c(=O)c3ccccc3c2c1 [PJ34, reference compound]",rescue of piericidin induced proliferation defect by supplementation,HeLa Tet3G cells [1]; 1 μM piericidin,did not rescue
"O=C(O)CC(O)C(=O)O (stereo not drawn) [malate, reference compound]",rescue of piericidin induced proliferation defect by supplementation,HeLa Tet3G cells [1]; 1 μM piericidin,do not
B1,effect on decrease in cell number (cell survival) at low glucose concentrations in the presence of piericidin,HeLa Tet3G cells [2],rescued
same,rescue of proliferation defect caused by ethidium bromide,"HeLa Tet3G cells [1]; 30 ng/ml ethidium bromide, no pyruvate, doxycycline-inducible expression",not
same,rescue of proliferation defect caused by antimycin,"HeLa Tet3G cells [1]; 1 μM antimycin, no pyruvate, doxycycline-inducible expression",not
same,rescue of proliferation defect caused by piericidin,"HeLa Tet3G cells [1]; 1 μM piericidin, no pyruvate, doxycycline-inducible expression",rescued
same,rescue of proliferation defect caused by chloramphenicol,"HeLa Tet3G cells [1]; 10 μg/ml chloramphenicol, no pyruvate, doxycycline-inducible expression",not
